{
  "source": "paper PMC8654288",
  "about": "“Structural basis of DegP protease temperature-dependent activation” (Science Advances, 2021)",
  "binders": {"B1": {"name": "DegP PDZ1-PDZ2 domain construct (DegP^261-448) (domain or fragment, E. coli K12, UniProt P0C0V0 287-474, looked up)", "chain": "KRGELGIMGTELNSELAKAMKVDAQRGAFVSQVLPNSSAAKAGIKAGDVITSLNGKPISSFAALRAQVGTMPVGSKLTLGLLRDGKQVNVNLELQQSSQNQVDSSSIFNGIEGAEMSNKGKDQGVVVNNVKTGTPAAQIGLKKGDVIIGANQQAVKNIAELRKVLDSKPSVLALNIQRGDSTIYLLMQ", "notes": "DegP protease, E. coli K12, PDZ1-PDZ2 domains, residues 261-448; numbers count on: the mature protein; Isotope-labelled for NMR; also called PDZ1-PDZ2 bidomain; pDS12; source: E. coli BL21 Star (λ DE3), purified (Ni2+ Sepharose, SENP1 cleavage, Superdex 75 Increase SEC); not shown: His6-SUMO, N-terminal, cleaved"}},
  "key": {"[1]": {"biological_target": "T1, DegP^S210A,Y444A (E. coli K12), P0C0V0", "T1 chain": "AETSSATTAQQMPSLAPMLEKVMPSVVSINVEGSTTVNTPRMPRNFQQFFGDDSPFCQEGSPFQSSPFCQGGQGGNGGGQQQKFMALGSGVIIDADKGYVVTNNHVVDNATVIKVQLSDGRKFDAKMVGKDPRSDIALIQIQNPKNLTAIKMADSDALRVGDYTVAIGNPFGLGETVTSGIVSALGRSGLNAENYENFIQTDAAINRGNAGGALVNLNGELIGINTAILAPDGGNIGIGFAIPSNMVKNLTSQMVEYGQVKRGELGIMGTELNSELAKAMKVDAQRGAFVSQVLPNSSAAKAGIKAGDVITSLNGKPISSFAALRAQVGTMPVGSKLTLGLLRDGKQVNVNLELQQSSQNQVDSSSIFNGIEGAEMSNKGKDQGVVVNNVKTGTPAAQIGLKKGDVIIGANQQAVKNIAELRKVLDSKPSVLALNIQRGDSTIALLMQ", "assay": "NMR pulsed field gradient diffusion (13C-methyl-filtered); [U-2H, Ile-δ1-13CH3]-DegP samples at 25°C; NMR buffer 25 mM potassium phosphate, 1 mM EDTA, 1 mM TCEP pH 7.0; oligomeric state from viscosity- and temperature-corrected translational diffusion coefficient against a calibration curve; hexamer to trimers", "settings": "remark: other sources report otherwise"}, "[2]": {"biological_target": "T1, DegP^S210A,Y444A (E. coli K12), P0C0V0", "assay": "SEC; full-length DegP^S210A variants alone; 8°C stated for DegP^S210A,Y444A; trimer and hexamer species", "settings": "remark: other sources report otherwise"}, "[3]": {"biological_target": "the molecule itself", "assay": "NMR pulsed field gradient diffusion (13C-methyl-filtered); [U-2H, Ile-δ1-13CH3]-DegP samples at 43° and 50°C; NMR buffer pH 7.0; hexamer to trimers"}, "[4]": {"biological_target": "the molecule itself", "assay": "NMR pulsed field gradient diffusion (13C-methyl-filtered); [U-2H, Ile-δ1-13CH3]-DegP samples at 25°C; NMR buffer 25 mM potassium phosphate, 1 mM EDTA, 1 mM TCEP pH 7.0; oligomeric state from viscosity- and temperature-corrected translational diffusion coefficient against a calibration curve; hexamer to trimers"}, "[5]": {"biological_target": "the molecule itself", "assay": "NMR pulsed field gradient diffusion (13C-methyl-filtered); DegP^S210A,M280I, temperature series (fig. S1, K and L); hexamer to trimers"}, "[6]": {"biological_target": "T2, DegP PDZ1 domain (DegP^261-354) (E. coli K12, UniProt P0C0V0 287-380)", "T2 construct": "DegP protease, E. coli K12, PDZ1 domain, residues 261-354; numbers count on: the mature protein; [U-15N]-labelled when observed in NMR titrations; also called pDS10; source: E. coli BL21 Star (λ DE3), purified (Ni2+ Sepharose, SENP1 cleavage, Superdex 75 Increase SEC); not shown: His6-SUMO, N-terminal, cleaved", "T2 sequence (looked up)": "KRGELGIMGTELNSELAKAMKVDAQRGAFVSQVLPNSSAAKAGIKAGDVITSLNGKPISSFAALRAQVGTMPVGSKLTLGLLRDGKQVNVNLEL", "assay": "BLI; Octet RED96, 25°C; biotinylated PDZ2 on streptavidin biosensors, PDZ1 as analyte; steady-state analysis; 0.1% BSA, 0.05% Tween 20; association 30 s, dissociation 40 s", "settings": "both partners purified"}, "[7]": {"biological_target": "T3, biotinylated PDZ1 domain (E. coli K12, UniProt P0C0V0 287-380, biotin (EZ-Link NHS-PEG4-Biotin, molar ratio 1:1 at pH 6.0 to ensure preferential labeling of the N-terminal α-amino group))", "T3 construct": "DegP protease, E. coli K12, PDZ1 domain, residues 261-354; numbers count on: the mature protein; m5 after biotinylation; immobilised on streptavidin biosensors; source: E. coli BL21 Star (λ DE3), purified, then biotinylated (EZ-Link NHS-PEG4-Biotin); not shown: His6-SUMO, N-terminal, cleaved", "T3 sequence (looked up)": "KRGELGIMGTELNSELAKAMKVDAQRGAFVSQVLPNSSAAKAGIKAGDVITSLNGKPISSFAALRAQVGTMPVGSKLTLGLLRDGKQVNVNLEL", "assay": "BLI; Octet RED96, 25°C; biotinylated PDZ1 on streptavidin biosensors, PDZ2 as analyte; initial tests", "settings": "both partners purified"}, "[8]": {"biological_target": "the molecule itself", "assay": "NMR line broadening and peak intensities ([13C,1H] spectra of side chains); [U-13C,15N]-PDZ1-PDZ2 alone at 25° to 50°C; Y444 Cα and ring resonances, M280 ε-methyl open and locked states"}, "[9]": {"biological_target": "B1", "assay": "NMR titration; substrates (p23, β-casein, nonactivating reporter peptide) added to the DegP PDZ domains (fig. S12); β-casein up to half equimolar ratio", "settings": "both partners purified"}, "[10]": {"biological_target": "the molecule itself", "assay": "SEC; full-length DegP^S210A variants alone; 8°C stated for DegP^S210A,Y444A; trimer and hexamer species"}},
  "note": "Several values for one entry are separate records, joined by “and”; a condition that tells them apart may be missing. Identical values can stand only once. No end group written: not given here. NO3 = not defined here",
  "data": [
    {"binder": "DegP^S210A,Y444A, P0C0V0 27-474 (enzyme) AETSSATTAQQMPSLAPMLEKVMPSVVSINVEGSTTVNTPRMPRNFQQFFGDDSPFCQEGSPFQSSPFCQGGQGGNGGGQQQKFMALGSGVIIDADKGYVVTNNHVVDNATVIKVQLSDGRKFDAKMVGKDPRSDIALIQIQNPKNLTAIKMADSDALRVGDYTVAIGNPFGLGETVTSGIVSALGRSGLNAENYENFIQTDAAINRGNAGGALVNLNGELIGINTAILAPDGGNIGIGFAIPSNMVKNLTSQMVEYGQVKRGELGIMGTELNSELAKAMKVDAQRGAFVSQVLPNSSAAKAGIKAGDVITSLNGKPISSFAALRAQVGTMPVGSKLTLGLLRDGKQVNVNLELQQSSQNQVDSSSIFNGIEGAEMSNKGKDQGVVVNNVKTGTPAAQIGLKKGDVIIGANQQAVKNIAELRKVLDSKPSVLALNIQRGDSTIALLMQ", "values": [
      {"measurement": "stoichiometry N", "setting": "[1]", "result": 3},
      {"measurement": "stoichiometry N", "setting": "[2]", "result": "3 and 6"}
    ]},
    {"binder": "DegP^S210A (full-length DegP, active site serine mutated) (enzyme, E. coli K12, UniProt P0C0V0 27-474, looked up, numbers count on: the mature protein; Isotope-labelled for NMR ([U-2H,15N] or [U-2H, Ile-d1-13CH3]); also called full-length DegP^S210A) AETSSATTAQQMPSLAPMLEKVMPSVVSINVEGSTTVNTPRMPRNFQQFFGDDSPFCQEGSPFQSSPFCQGGQGGNGGGQQQKFMALGSGVIIDADKGYVVTNNHVVDNATVIKVQLSDGRKFDAKMVGKDPRSDIALIQIQNPKNLTAIKMADSDALRVGDYTVAIGNPFGLGETVTSGIVSALGRSGLNAENYENFIQTDAAINRGNAGGALVNLNGELIGINTAILAPDGGNIGIGFAIPSNMVKNLTSQMVEYGQVKRGELGIMGTELNSELAKAMKVDAQRGAFVSQVLPNSSAAKAGIKAGDVITSLNGKPISSFAALRAQVGTMPVGSKLTLGLLRDGKQVNVNLELQQSSQNQVDSSSIFNGIEGAEMSNKGKDQGVVVNNVKTGTPAAQIGLKKGDVIIGANQQAVKNIAELRKVLDSKPSVLALNIQRGDSTIYLLMQ", "values": [
      {"measurement": "stoichiometry N", "setting": "[3]", "result": 3},
      {"measurement": "stoichiometry N", "setting": "[4]", "result": 6}
    ]},
    {"binder": "DegP^S210A,M280I (enzyme, E. coli K12, UniProt P0C0V0 27-474, looked up, numbers count on: the mature protein) AETSSATTAQQMPSLAPMLEKVMPSVVSINVEGSTTVNTPRMPRNFQQFFGDDSPFCQEGSPFQSSPFCQGGQGGNGGGQQQKFMALGSGVIIDADKGYVVTNNHVVDNATVIKVQLSDGRKFDAKMVGKDPRSDIALIQIQNPKNLTAIKMADSDALRVGDYTVAIGNPFGLGETVTSGIVSALGRSGLNAENYENFIQTDAAINRGNAGGALVNLNGELIGINTAILAPDGGNIGIGFAIPSNMVKNLTSQMVEYGQVKRGELGIMGTELNSELAKAIKVDAQRGAFVSQVLPNSSAAKAGIKAGDVITSLNGKPISSFAALRAQVGTMPVGSKLTLGLLRDGKQVNVNLELQQSSQNQVDSSSIFNGIEGAEMSNKGKDQGVVVNNVKTGTPAAQIGLKKGDVIIGANQQAVKNIAELRKVLDSKPSVLALNIQRGDSTIYLLMQ", "values": [
      {"measurement": "binding result", "setting": "[5]", "result": "binds"}
    ]},
    {"binder": "biotinylated PDZ2 domain (domain or fragment, E. coli K12, UniProt P0C0V0 385-474, looked up, biotin (EZ-Link NHS-PEG4-Biotin, molar ratio 1:1 at pH 6.0 to ensure preferential labeling of the N-terminal α-amino group), DegP protease, E. coli K12, PDZ2 domain, residues 359-448; numbers count on: the mature protein; m6 after biotinylation; immobilised on streptavidin biosensors; source: E. coli BL21 Star (λ DE3), purified, then biotinylated (EZ-Link NHS-PEG4-Biotin); not shown: His6-SUMO, N-terminal, cleaved) QNQVDSSSIFNGIEGAEMSNKGKDQGVVVNNVKTGTPAAQIGLKKGDVIIGANQQAVKNIAELRKVLDSKPSVLALNIQRGDSTIYLLMQ", "values": [
      {"measurement": "Kd", "setting": "[6]", "result": "7.8 ± 0.9", "unit": "µM"}
    ]},
    {"binder": "DegP PDZ2 domain (DegP^359-448) (domain or fragment, E. coli K12, UniProt P0C0V0 385-474, looked up, DegP protease, E. coli K12, PDZ2 domain, residues 359-448; numbers count on: the mature protein; [U-15N]-labelled when observed in NMR titrations; also called pDS11; source: E. coli BL21 Star (λ DE3), purified (Ni2+ Sepharose, SENP1 cleavage, Superdex 75 Increase SEC); not shown: His6-SUMO, N-terminal, cleaved) QNQVDSSSIFNGIEGAEMSNKGKDQGVVVNNVKTGTPAAQIGLKKGDVIIGANQQAVKNIAELRKVLDSKPSVLALNIQRGDSTIYLLMQ", "values": [
      {"measurement": "fold weakening of Kd against PDZ1 on biotinylated PDZ2", "setting": "[7]", "result": "~10", "unit": "fold"}
    ]},
    {"binder": "B1", "values": [
      {"measurement": "ratio of open to locked state of M280 at 37°C", "setting": "[8]", "result": 1},
      {"measurement": "stoichiometry N", "setting": "[8]", "result": 2}
    ]},
    {"binder": "Abz-GNWVSAAKFETYR(NO3)SKNTQDYGILQI (reading uncertain; also: printed as Abz-GNWVSAAKFETYR^NO3^SKNTQDYGILQI, The superscript probably marks a nitrotyrosine quencher at Y12; also called fluorescent p23 peptide; source: synthetic peptide, bought: GenScript)", "note": "[p23 peptide (Abz-GNWVSAAKFETYR^NO3SKNTQDYGILQI)]", "values": [
      {"measurement": "binding result", "setting": "[9]", "result": "binds"}
    ]},
    {"binder": "DegP^S210A,M280A (enzyme, E. coli K12, UniProt P0C0V0 27-474, looked up, numbers count on: the mature protein) AETSSATTAQQMPSLAPMLEKVMPSVVSINVEGSTTVNTPRMPRNFQQFFGDDSPFCQEGSPFQSSPFCQGGQGGNGGGQQQKFMALGSGVIIDADKGYVVTNNHVVDNATVIKVQLSDGRKFDAKMVGKDPRSDIALIQIQNPKNLTAIKMADSDALRVGDYTVAIGNPFGLGETVTSGIVSALGRSGLNAENYENFIQTDAAINRGNAGGALVNLNGELIGINTAILAPDGGNIGIGFAIPSNMVKNLTSQMVEYGQVKRGELGIMGTELNSELAKAAKVDAQRGAFVSQVLPNSSAAKAGIKAGDVITSLNGKPISSFAALRAQVGTMPVGSKLTLGLLRDGKQVNVNLELQQSSQNQVDSSSIFNGIEGAEMSNKGKDQGVVVNNVKTGTPAAQIGLKKGDVIIGANQQAVKNIAELRKVLDSKPSVLALNIQRGDSTIYLLMQ", "values": [
      {"measurement": "stoichiometry N", "setting": "[10]", "result": "3 and 6"}
    ]}
  ]
}
